Measurements: patent publication US20200399712A1, “COMPOSITIONS AND METHODS FOR THE DIAGNOSIS AND DETECTION OF TUMORS AND CANCER PROGNOSIS” (priority 2018, published 2020)
“Also recorded” adds a separate entry of the source. Marks after values point to notes of the source that are not given here.

Experiments:
HPV-16 [1] = test: qPCR sensitivity against HPV-HNSCC tumor samples diluted among 10 ng normal human DNA
Method: Quantitative real-time polymerase chain reaction (qRT-PCR) was used to examine the threshold in each experiment. qRT-PCR was performed using Quant Studio 6 Flex Real-Time PCR System (Thermo Fisher Scientific). All samples were run in triplicates. HPV-16 viral amplicon copy number estimations were developed using the CaSki cell line. After amplification of the amplicon by PCR, DNA concentration was calculated by weight NanoDrop®, then converted to DNA copy number by calculation based on the molecular weight of the double stranded amplicon. […] In the other 32 HPV-HNSCC cohort, Applicants diluted the tumor sample to 990 pg, 198 pg, 99 pg, 39.6 pg, 7.9 pg, 3.2 pg, and 1.6 pg of amount tumor weight, (correspond to 150, 30, 15, 6, 1.2, 0.6, and 0.3 cells: assumption that 1 tumor cell have 6.6 pg DNA (=3*10^9 (human DNA genome bp)*2 (diploid)*1.67*10^(−24) g (weight/Dalton))) combined with 10 ng normal leukocyte human DNA and compare the threshold of each primer-probe sets.
In this regard, Applicants investigated the other 32 HPV-HNSCC tumor samples. From the assumption that 1 cell tumor DNA contain 6.6 pg DNA, Applicants made the dilution series by DNA derived from normal lymphocyte as described and decide the threshold for each primer-probe set.
Furthermore, to determine whether these designed primer/probe sets also have a high sensitivity in a separate cohort, Applicants performed PCR in a validation cohort of 32 additional primary tumor samples with validated presence of HPV-16. Applicants prepared serial of dilutions of tumor DNA in normal lymphocyte DNA from non-cancer individuals and determined the threshold for each primer/probe set and defined amplification thresholds expressed in number of tumor cells for each sample (Table 5).

HPV-16 genome = test: qPCR sensitivity against HPV-16 copy number (known-copy HPV-16 DNA among 10 ng normal human DNA); conditions: for reaction under 10 copies of HPV-16 genome / reaction under 30 copies of HPV-16 genome: among 10 ng normal DNA, triplicate qPCR
HPV DNA = test: CLIA HPV test pilot study on saliva rinse samples from HPV-positive HNSCC patients and non-cancer controls; parameters: species or system HPV16; HPV16 DNA measured by CLIA HPV test: unit not given here
Method: As a final validation, Applicants a small pilot study was performed on a blinded set of saliva rinse samples from 28 patients with HPV-positive HNSCC and 15 salivary rinses from non-cancer controls. […] The sensitivity increased to 96% when all three sets were used (Table 3).

HPV16 DNA [2] = test: CLIA test for HPV16, performance characteristics in salivary rinse
Description: (§1) These primer/probe sets were adapted for development of a CLIA test for HPV16 DNA detection in plasma and salivary rinses (Table 2). Test performance was improved, so that analytical sensitivity in salivary rinse spike in assays ranges from 2.5-5.0 DNA copies/mL with 100% specificity for the three primer/probe sets that are now part of the component assay, resulting in a five-fold improvement in analytic sensitivity that is in the range of sensitivity found in sequence based liquid biopsy methods (FIG. 23, Table 2). Additionally, the assays can be used quantitatively, with measuring ranges between 2.0 log10-7.0 log10 copies/mL.

HPV-16 [3] = test: qPCR on 20 ng DNA from saliva samples of HPV-HNSCC patients
Method: All samples were run in triplicates.
The sensitivity of detection from saliva 20 ng DNA samples is 32.1% (9/28) in E6 primer-probe sets, 42.9% (12/28) in E7 primer-probe sets, 35.7% (10/28) in “Min-5” primer-probe sets, 46.4% (13/28) in “Max-10” primer-probe sets. The sensitivity of combination of “5” and “10” is 50% (14/28) and that of E6 and E7 is 42.9% (12/28). By the standard curve analysis, the copy numbers that detected by “Max-10” primer-probe sets were the highest in these 4 primer-probe sets. The slope of standard curve is −3.5 in “Min-5” primer-probe sets when delta Rn is plotted against cycle threshold (FIG. 5).

HPV16 DNA [4] = test: CLIA test for HPV16, performance characteristics in plasma
Description: as §1

[5] = tumor DNA dilution, fraction of 32 samples
[6] = samples tested 3 times, 10 ng DNA from healthy individual
[7] = first template ('... HPV16', word is an image)
[8] = second template (name is an image)

B1: BR E1-5: HPV-16 E1 region primer/probe set, SEQ ID NO: 40-42 (same as SEQ ID NO: 1-3) (nucleic acid)
DNA 1: GCACAATTGGCAGACACTAAT
DNA 2: GCACAATCCTTTACAATTTTTGCC
DNA 3: AGTAATGCAAGTGCCTTTCTAAAAAGTAATTC
modifications: chemistry not given here
For B1, the “sensitivity under 100 cells” value (HPV-16 [1]; 32 HPV-HNSCC tumor samples) was 96.9%, the “sensitivity under single cells” value (HPV-16 [1]; 32 HPV-HNSCC tumor samples, 6.6 pg DNA) was 28.1% and the “sensitivity under 10 cells” value (HPV-16 [1]; 32 HPV-HNSCC tumor samples, 66 pg DNA) was 68.7%. For the same molecule, the “Threshold of tumor cell numbers for HPV-16 detection” value (“Threshold of tumor cell numbers” below) (HPV-16 [1]; Sample # 1) was 60.0 tumor cells, the “Threshold of tumor cell numbers” value (HPV-16 [1]; Sample # 2) was 150.0 tumor cells and the “Threshold of tumor cell numbers” value (HPV-16 [1]; Sample # 3) was 30.0 tumor cells. The “Threshold of tumor cell numbers” value (HPV-16 [1]; Sample # 4) was 6.0 tumor cells, the “Threshold of tumor cell numbers” value (HPV-16 [1]; Sample # 5) was 6.0 tumor cells and the “Threshold of tumor cell numbers” value (HPV-16 [1]; Sample # 6) was 15.0 tumor cells. For the same molecule, the “Threshold of tumor cell numbers” value (HPV-16 [1]; Sample # 7) was 30.0 tumor cells, the “Threshold of tumor cell numbers” value (HPV-16 [1]; Sample # 8) was 30.0 tumor cells and the “Threshold of tumor cell numbers” value (HPV-16 [1]; Sample # 9) was 1.2 tumor cells. For the same molecule, the “Threshold of tumor cell numbers” value (HPV-16 [1]; Sample # 10) was 6.0 tumor cells, the “Threshold of tumor cell numbers” value (HPV-16 [1]; Sample # 11) was 30.0 tumor cells and the “Threshold of tumor cell numbers” value (HPV-16 [1]; Sample # 12) was 30.0 tumor cells. The “Threshold of tumor cell numbers” value (HPV-16 [1]; Sample # 13) was 6.0 tumor cells, the “Threshold of tumor cell numbers” value (HPV-16 [1]; Sample # 14) was 6.0 tumor cells and the “Threshold of tumor cell numbers” value (HPV-16 [1]; Sample # 15) was 6.0 tumor cells. The “Threshold of tumor cell numbers” value (HPV-16 [1]; Sample # 16) was 6.0 tumor cells, the “Threshold of tumor cell numbers” value (HPV-16 [1]; Sample # 17) was 1.2 tumor cells and the “Threshold of tumor cell numbers” value (HPV-16 [1]; Sample # 18) was 0.2 tumor cells. For the same molecule, the “Threshold of tumor cell numbers” value (HPV-16 [1]; Sample # 19) was 1.2 tumor cells, the “Threshold of tumor cell numbers” value (HPV-16 [1]; Sample # 20) was 3.0 tumor cells and the “Threshold of tumor cell numbers” value (HPV-16 [1]; Sample # 21) was 0.6 tumor cells. The “Threshold of tumor cell numbers” value (HPV-16 [1]; Sample # 22) was 0.3 tumor cells, the “Threshold of tumor cell numbers” value (HPV-16 [1]; Sample # 23) was 1.2 tumor cells and the “Threshold of tumor cell numbers” value (HPV-16 [1]; Sample # 24) was 0.6 tumor cells. For the same molecule, the “Threshold of tumor cell numbers” value (HPV-16 [1]; Sample # 25) was 0.3 tumor cells, the “Threshold of tumor cell numbers” value (HPV-16 [1]; Sample # 26) was 0.6 tumor cells and the “Threshold of tumor cell numbers” value (HPV-16 [1]; Sample # 27) was 0.6 tumor cells. For the same molecule, the “Threshold of tumor cell numbers” value (HPV-16 [1]; Sample # 28) was 0.6 tumor cells, the “Threshold of tumor cell numbers” value (HPV-16 [1]; Sample # 29) was 1.0 tumor cells and the “Threshold of tumor cell numbers” value (HPV-16 [1]; Sample # 30) was 15.0 tumor cells. For the same molecule, the “Threshold of tumor cell numbers” value (HPV-16 [1]; Sample # 31) was 0.6 tumor cells, the “Threshold of tumor cell numbers” value (HPV-16 [1]; Sample # 32) was 15.0 tumor cells and the “Sensitivity, 1 cell” value (HPV-16 [1]; [5]) was 0.281*. The “Sensitivity, 3 cells” value (HPV-16 [1]; [5]) was 0.438, the “Sensitivity, 10 cells” value (HPV-16 [1]; [5]) was 0.688 and the “Sensitivity, 30 cells” value (HPV-16 [1]; [5]) was 0.938*. For the same molecule, the “Sensitivity, 100 cells” value (HPV-16 [1]; [5]) was 0.969*, the “reaction under 10 copies of HPV-16 genome” value (HPV-16 genome) was “consistent detection” and the “reaction under 30 copies of HPV-16 genome” value (HPV-16 genome) was “consistently amplified”. For the same molecule, the “reaction under 10 copies of HPV-16 genome” value (HPV-16 genome; listed as Min-5) was “consistently triplicate reaction; also recorded: could detect”, the “reaction under 30 copies of HPV-16 genome” value (HPV-16 genome; listed as Min-5) was “react consistently” and the “number of reactions against 10 HPV-16 copies” value (HPV-16 genome; [6]) was 3 reactions. The “number of reactions under 30 HPV-16 copies” value (HPV-16 genome; [6]) was 3 reactions, the “sensitivity for the detection of HPV DNA in saliva rinse samples” value (HPV DNA; 28 patients with HPV-positive HNSCC) was 79% and the “HPV16 DNA measured by CLIA HPV test” value (HPV DNA; saliva sample from HPV-HNSCC patient # 1) was 866000. For the same molecule, the “HPV16 DNA measured by CLIA HPV test” value (HPV DNA; saliva sample from HPV-HNSCC patient # 2) was 118000, the “HPV16 DNA measured by CLIA HPV test” value (HPV DNA; saliva sample from HPV-HNSCC patient # 3) was 47600 and the “HPV16 DNA measured by CLIA HPV test” value (HPV DNA; saliva sample from HPV-HNSCC patient # 4) was 104000. The “HPV16 DNA measured by CLIA HPV test” value (HPV DNA; saliva sample from HPV-HNSCC patient # 7) was 9790, the “HPV16 DNA measured by CLIA HPV test” value (HPV DNA; saliva sample from HPV-HNSCC patient # 8) was 3590 and the “HPV16 DNA measured by CLIA HPV test” value (HPV DNA; saliva sample from HPV-HNSCC patient # 9) was 2600. The “HPV16 DNA measured by CLIA HPV test” value (HPV DNA; saliva sample from HPV-HNSCC patient # 12) was 127, the “HPV16 DNA measured by CLIA HPV test” value (HPV DNA; saliva sample from HPV-HNSCC patient # 13) was 290 and the “HPV16 DNA measured by CLIA HPV test” value (HPV DNA; saliva sample from HPV-HNSCC patient # 14) was 114. The “HPV16 DNA measured by CLIA HPV test” value (HPV DNA; saliva sample from HPV-HNSCC patient # 15) was 160, the “HPV16 DNA measured by CLIA HPV test” value (HPV DNA; saliva sample from HPV-HNSCC patient # 16) was 121 and the “HPV16 DNA measured by CLIA HPV test” value (HPV DNA; saliva sample from HPV-HNSCC patient # 17) was 67.4. For the same molecule, the “HPV16 DNA measured by CLIA HPV test” value (HPV DNA; saliva sample from HPV-HNSCC patient # 18) was 15.8, the “HPV16 DNA measured by CLIA HPV test” value (HPV DNA; saliva sample from HPV-HNSCC patient # 19) was 61.1 and the “HPV16 DNA measured by CLIA HPV test” value (HPV DNA; saliva sample from HPV-HNSCC patient # 20) was 30.9. The “HPV16 DNA measured by CLIA HPV test” value (HPV DNA; saliva sample from HPV-HNSCC patient # 21) was 25.7, the “HPV16 DNA measured by CLIA HPV test” value (HPV DNA; saliva sample from HPV-HNSCC patient # 22) was 2.68 and the “HPV16 DNA measured by CLIA HPV test” value (HPV DNA; saliva sample from HPV-HNSCC patient # 23) was 1.82. The “HPV16 DNA measured by CLIA HPV test” value (HPV DNA; saliva sample from HPV-HNSCC patient # 24) was 14.4, the “HPV16 DNA measured by CLIA HPV test” value (HPV DNA; saliva sample from HPV-HNSCC patient # 25) was 2.76 and the “HPV16 DNA measured by CLIA HPV test” value (HPV DNA; saliva sample from HPV-HNSCC patient # 27) was 2.17. For the same molecule, the “Measuring Range - Salivary Rinse” value (HPV16 DNA [2]; first template ('... HPV16')) was 2.0-8.5 log10 log10 copies/mL, the “Limit of Detection - Salivary rinse” value (HPV16 DNA [2]; [7]) was 3 copies/mL and the “Limit of Detection - Salivary rinse” value (HPV16 DNA [2]; [8]) was 12 copies/mL. The “Measuring Range - Salivary Rinse” value (HPV16 DNA [2]; [8]) was 2.0-6.5 log10 log10 copies/mL, the “sensitivity of detection from saliva 20 ng DNA samples” value (HPV-16 [3]; 28 HPV-HNSCC saliva samples) was 35.7% and the “slope of standard curve (delta Rn plotted against cycle threshold)” value (HPV-16 [3]; RT-PCR, 20 ng DNA from HPV-HNSCC saliva samples (FIG. 5)) was −3.5. The “Accuracy - Plasma Blind Panel, Negative % Agreement” value (HPV16 DNA [4]) was 100%, the “Accuracy - Plasma Blind Panel, Positive % Agreement” value (HPV16 DNA [4]) was 100% and the “Accuracy - Plasma Blind Panel, Total % Agreement” value (HPV16 DNA [4]) was 100%. The “Measuring Range - Plasma” value (HPV16 DNA [4]; first template ('... HPV16')) was 2.0-8.5 log10 log10 copies/mL, the “Limit of Detection - Plasma” value (HPV16 DNA [4]; [7]) was 1.5 copies/mL and the “Limit of Detection - Plasma” value (HPV16 DNA [4]; [8]) was 22 copies/mL. The “Measuring Range - Plasma” value (HPV16 DNA [4]; [8]) was 2.0-6.5 log10 log10 copies/mL.
